Source: paper PMC11289878

Target: B-isoform of human insulin receptor (hIR-B) (human) (UniProt P06213)
UniProt P06213, sequence (P06213 28-1382): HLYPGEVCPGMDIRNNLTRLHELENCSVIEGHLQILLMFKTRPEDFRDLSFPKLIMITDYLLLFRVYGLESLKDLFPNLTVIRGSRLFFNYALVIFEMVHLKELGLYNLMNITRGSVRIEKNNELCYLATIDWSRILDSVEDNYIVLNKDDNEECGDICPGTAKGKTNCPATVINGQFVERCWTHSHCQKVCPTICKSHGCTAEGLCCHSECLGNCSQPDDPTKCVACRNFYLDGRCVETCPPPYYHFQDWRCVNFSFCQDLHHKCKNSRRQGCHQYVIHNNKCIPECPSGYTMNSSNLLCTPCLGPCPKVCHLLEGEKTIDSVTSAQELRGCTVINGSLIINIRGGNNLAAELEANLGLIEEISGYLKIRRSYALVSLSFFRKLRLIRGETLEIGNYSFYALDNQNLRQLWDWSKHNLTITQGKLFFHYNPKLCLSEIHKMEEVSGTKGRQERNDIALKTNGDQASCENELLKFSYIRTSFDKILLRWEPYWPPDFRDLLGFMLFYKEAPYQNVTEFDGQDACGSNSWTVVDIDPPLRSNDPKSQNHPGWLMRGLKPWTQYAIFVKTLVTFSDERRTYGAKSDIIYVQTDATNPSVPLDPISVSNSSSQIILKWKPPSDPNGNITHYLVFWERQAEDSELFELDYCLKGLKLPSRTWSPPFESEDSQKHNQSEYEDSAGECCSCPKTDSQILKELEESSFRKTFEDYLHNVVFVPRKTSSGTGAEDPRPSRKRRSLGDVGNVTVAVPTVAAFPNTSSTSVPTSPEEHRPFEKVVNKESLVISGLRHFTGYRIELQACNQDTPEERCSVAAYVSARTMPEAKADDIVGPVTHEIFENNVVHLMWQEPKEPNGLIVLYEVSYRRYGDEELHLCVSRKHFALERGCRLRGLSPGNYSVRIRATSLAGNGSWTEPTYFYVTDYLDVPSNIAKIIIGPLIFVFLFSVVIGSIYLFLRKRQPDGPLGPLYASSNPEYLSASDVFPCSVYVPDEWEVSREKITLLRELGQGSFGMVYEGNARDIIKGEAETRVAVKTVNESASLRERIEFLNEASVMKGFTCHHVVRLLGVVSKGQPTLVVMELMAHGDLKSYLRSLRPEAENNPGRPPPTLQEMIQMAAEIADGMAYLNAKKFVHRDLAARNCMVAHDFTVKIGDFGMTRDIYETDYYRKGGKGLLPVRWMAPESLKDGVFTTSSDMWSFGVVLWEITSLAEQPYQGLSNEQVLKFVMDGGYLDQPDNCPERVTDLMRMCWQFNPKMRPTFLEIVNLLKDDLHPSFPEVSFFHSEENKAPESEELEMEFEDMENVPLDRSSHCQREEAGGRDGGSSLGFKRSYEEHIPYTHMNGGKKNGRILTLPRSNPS

EC50 (nM) of insulin receptor Y1158 phosphorylation, HEK293 cells overexpressing hIR-B, 0% HSA: 50 nM
EC50 (nM) of insulin receptor Y1158 phosphorylation, HEK293 cells overexpressing hIR-B, 1% HSA: 83 nM
Rel. potency (%) to human insulin standard in the same assay, insulin receptor Y1158 phosphorylation, 0% HSA: 1.4%
Rel. potency (%) to human insulin standard in the same assay, insulin receptor Y1158 phosphorylation, 1% HSA: 1.5%
Substance: LY3209590 (Fc fusion)
